Results published in US20240084005A1 (ALLAKOS, published 2024).

Key:
[1] = biological target: T1, Siglec-6 ECD Fc protein (human, UniProt O43699 27-347); experiment: BLI (Octet Red 384), bivalent IgG on immobilized Siglec-6 ECD Fc
T1 construct: also called Siglec-6 full ECD fused to a human Fc; not shown: human Fc
Procedure: Bivalent binding affinities of IgG for Siglec-6 mAbs were measured by biolayer interferometry using a FortéBio Octet Red 384 instrument using immobilized Siglec-6 ECD Fc protein.

[2] = biological target: T2, Siglec-6 domains 1 and 2 fused to a human Fc (human, UniProt O43699 27-237); experiment: ELISA on Siglec-6 domain-human Fc fusions (Domain Mapping = 3)
T2 construct: also called domains 1 and 2 fusion protein; not shown: human Fc
T2 sequence (O43699 27-237 limits assumed): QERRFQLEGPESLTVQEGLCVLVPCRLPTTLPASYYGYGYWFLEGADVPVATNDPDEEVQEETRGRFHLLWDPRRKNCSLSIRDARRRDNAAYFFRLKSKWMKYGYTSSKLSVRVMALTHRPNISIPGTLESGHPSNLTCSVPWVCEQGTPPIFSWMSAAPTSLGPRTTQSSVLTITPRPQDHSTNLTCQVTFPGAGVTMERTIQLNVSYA
Procedure: (§1) Domain mapping was assessed by ELISA using recombinantly expressed Siglec-6 extracellular domains fused to a human Fc containing the full ECD, domains 1 and 2, or domain 1. Siglec-6 mAbs were tested for binding to each of these domain fusion proteins and assigned domains based on their specific binding properties. Siglec-6 mAbs that bound to all three fusion proteins were assigned domain 1 binders, mAbs that bound to full ECD and domains 1 and 2 were assigned domain 2 binders, and mAbs that bound to only the full ECD protein were assigned domain 3 binders.

[3] = biological target: T3, Siglec-6 domain 1 fused to a human Fc (human, UniProt O43699 27-147); experiment: as above
T3 construct: also called domain 1 fusion protein; not shown: human Fc
T3 sequence (O43699 27-147 limits assumed): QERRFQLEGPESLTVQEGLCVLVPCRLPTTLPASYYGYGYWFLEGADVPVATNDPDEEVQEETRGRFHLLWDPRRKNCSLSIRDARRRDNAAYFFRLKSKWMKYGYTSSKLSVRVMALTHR
Procedure: as §1

[4] = biological target: T3, Siglec-6 domain 1 fused to a human Fc; experiment: ELISA on Siglec-6 domain-human Fc fusions (Domain Mapping = 2)
Procedure: as §1

[5] = biological target: Siglec-6 (antigen of Example 8) (human, UniProt O43699 27-347, limits assumed); experiment: BLI, monovalent Fab
Siglec-6 (antigen of Example 8), sequence (O43699 27-347 limits assumed): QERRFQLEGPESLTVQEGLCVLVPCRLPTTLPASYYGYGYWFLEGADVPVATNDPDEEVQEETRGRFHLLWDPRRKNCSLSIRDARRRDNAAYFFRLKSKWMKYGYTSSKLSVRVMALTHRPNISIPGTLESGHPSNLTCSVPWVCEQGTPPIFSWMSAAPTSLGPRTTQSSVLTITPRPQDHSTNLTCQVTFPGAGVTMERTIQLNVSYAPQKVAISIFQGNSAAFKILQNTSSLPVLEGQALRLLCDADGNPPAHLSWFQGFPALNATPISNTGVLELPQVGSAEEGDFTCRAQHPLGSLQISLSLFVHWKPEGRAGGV

T1 sequence (O43699 27-347): as the sequence (O43699 27-347 limits assumed) above

Molecule | Kd [1] [nM] | binding result [2] | binding result [3] | other results
R&D MAB2859 (antibody) | 0.009 |  |  | 
AK15 (antibody, V domains shown, also called anti-Siglec-6 mAb AK15) VH: QVQLKESGPGLVAPSQSLSITCTVSGFSLTSYGVSWVRQPPGKGLEWLGIIWGDGSTNYHSALISRLSISKDKSKSQVFLKLNSLQADDTATYYCAKGLSDWYFDVWGTGTTVTVSS VL: QIVLSQSPAILSASPGEKVTMTCRASSSVSYMHWYQQKPGSSPKPWIYATSNLASGVPARFSGSGSGTSYSLTISRVEAEDAATYYCQQWSSNPYTFGGGTKLEIK | 1.04 | no binding | no binding | 
AK08 (antibody, V domains shown, also called anti-Siglec-6 mAb AK08) VH: QVQLKESGPGLVAPSQSLSITCTVSGFSLTSYGVNWIRQPPGKGLEWLGVIWGDGSTNYHSALISRLSISKDNSKSQVFLKLNSLQTDDTATYYCAKALSDWYFDVWGTGTTVTVSS VL: QIVLSQSPAILSASPGEKVTMTCRASSSVSYMHWYQQKPGSSPKPWIYATSNLASGVPARFSGSGSGTSYSLTISRVEAEDAATYYCQQWSSNPYTFGGGTKLEIK | 0.261 | no binding | no binding | 
AK06 (antibody, V domains shown, also called anti-Siglec-6 mAb AK06) VH: EVPLVESGGGLVKPGGSLKLSCAASGFTFSDYGIHWVRQAPEKGLEWVAYITSVSSTIYYADTVKGRFTISRDNAKNTLFLQMTSLRSEDTAMYYCAILDWYFDVWGTGTTVTVSS VL: QIVLTQSPAIMSASPGEKVTMTCSANSSVSFMHWFQQKSGTSPKRWIYDTSKLASGVPARFSASGSGTSYSLTISSMEAEDAATYYCQQWSSNPLTFGAGTKVELK | 0.024 |  |  | 
AK05 (antibody, V domains shown, also called anti-Siglec-6 mAb AK05) VH: QVQLQQPGTELVKPGASVQLSCKASGYIFTSYWMYWVKQRPGQGLEWIGNVNPYSGDTNYNEKFKTKATLTVDKASSTAFIQLSGLTSEDSAVYFCARGDGLYYYAMDYWGQGTSVTVSS VL: DIKMTQSPSSMYASLGERVTITCKASQDINSYLTWFQQKPGKSPKTLIYRASRLVDGVPSRFSGSGSGQDYSLTISSLEYEDMGIYYCLQYDEFPLTFGAGAKLELI | 0.055 |  |  | 
AK04 (antibody, V domains shown, also called anti-Siglec-6 mAb AK04; AK04 IgG1) VH: QVQLKESGPGLVAPSQSLSITCTVSGFSLTSYGVSWVRKPPGKGLEWLGVIWHDGSTSYHSTLISRLNISRDNSKSQVFLKLNSLQTDDTATYYCASDGYSGTFAYWGQGTLVTVSA VL: QIVVTQSPAIMSASLGERVTMTCTASSSVSSSYLHWYQQKPGSSPKLWIYSTSILASGVPARFSGSGSGTSYSLTVSSMEAEDAATYYCHQYHRSPYTFGGGSKLEIR | 0.001 |  |  | 
AK03 (antibody, V domains shown, also called anti-Siglec-6 mAb AK03) VH: EVQLQQSGTVLARPGASVKMSCKTSGYTFTSYWMHWVKQRPGQGLEWIGTIYPGNSDSTYNQKFKGKAKLTAVTSASTAYMEVSSLTNEDSAVYYCSREGTVVANYYGLDYWGQGTSVTVSS VL: QIVLSQSPAILSASPGEKVTMTCRASSSVSYIHWYQQKPGSSPKPWIYATSNLASGVPARFSGSGSGTSYSLTISRVEAEDAATYYCQQWSSKPPTFGAGTKLELK | 0.001 |  |  | 
AK02 (antibody, V domains shown, also called anti-Siglec-6 mAb AK02) VH: QVQLQQPGAELVKPGASVKLSCKASGYTFTNYYIHWVKQRPGQGLEWIGMIHPISGSTNYNEKLKIKATLTVDKSSSTAYMQLSSLTSEDSAVYYCARRYYGSSYWYFDVWGTGTTVTVSS VL: QIVLSQSPAILSASPGEKVTMTCRASSSVSYMNWYQQKPGSSPKPWIYATSNLASGVPARFSGSGSGTPYSLTISRVEAEDAATYYCQQWSSHPPTFGSGTKLEIK | 0.007 |  |  | 
AK01 (antibody, V domains shown, also called anti-Siglec-6 mAb AK01) VH: QVQLKQSGPGLVQPSQSLSITCTVSGFSLTSYSVHWVRQSPGKGLEWLGVIWSGGSTDYNAVFISRLSISRDNSKSQVFFKMNSLQADDSAIYYCASYSYYTMDYWGQGTSVTVSS VL: DVVMTQTPLSLPVSLGDQASISCRSSQSLVLDNGNTYLHWYLQKPGQSPKLLIYKVSNRFSGVPDRFTGSGSGTDFTLKINRVEAEDLGVYFCSQSTHVPFTFGSGTKLEIK | 0.001 |  |  | 
AK14 (antibody, V domains shown, also called anti-Siglec-6 mAb AK14) VH: QIQLVQSGPELKKPGETVKISCKASGYTFTTYGMSWVKQAPGKGLKWMGWINTYSGVPTYADDFKGRFAFSLETSATTAYLQINNLKNEDTATYFCARLAYFGYYFDFWGQGTTLTVSS VL: DIVMTQSQKFMSTTVGDRVSFTCKASQNVGSAVAWYQQKPGQSPKLLIYSASNRYTGVPDRFTGSGSGTDFTLTISNMQSEDLADYFCQQYSSYPYTFGGGTKLEIK | 0.072 | no binding | no binding | 
AK13 (antibody, V domains shown, also called anti-Siglec-6 mAb AK13) VH: QIQLVQSGPELKKPGETVKISCKASGYTFTTYGMSWVKQAPGKGLKWMGWINTYSGVPTYADDFKGRFAFSLETSATTAYLQINNLKNEDTATYFCARLAYFGYYFDFWGQGTTLTVSS VL: DIVMTQSQKFMSTTVGDRVSFTCKASQNVGSAVTWYQQKPGQSPKLLIYSASNRYTGVPDRFTGSGSGTDFTLTISNMQSEDLADYFCQQYSSYPYTFGGGTKLEIK | 0.063 | no binding | no binding | 
AK12 (antibody, V domains shown, also called anti-Siglec-6 mAb AK12) VH: QVQLKQSGPGLVQPSQSLSITCTVSGFSLTSYGVHWVRQSPGKGLEWLGVIWGGGSTDYNAGFISRLSISKDNSKSQVFFKMNSLQADDTAIYYCARALSDWYFDVWGTGTTVTVSS VL: QIVLSQSPAILSASPGEKVTMTCRASSSVSYMHWYQQKPGSSPKPWIYATSNLASGVPARFSGSGSGTSYSLTISRVEAEDAATYYCQQWSSNPLTFGAGTKLELK | 0.087 | no binding | no binding | 
AK11 (antibody, V domains shown, also called anti-Siglec-6 mAb AK11) VH: EVMLVESGGGLVKPGGSLKLSCAASGFSFSTYVMSWVRQTPEKRLEWVASISGGGSNTYYPDSVKGRFTISRDNAKNTLYLQMSSLRSEDTALYYCARREVVVYWYFDVWGTGTTVTVSS VL: DIQMTQSPASLSVSVGETVTITCRASENIYSNLAWYQQKQGKSPQLLVFSAKNLADGVPSRFGGSGSGTQYSLKINSLQSEDFGTYYCQHFWGTPLTFGAGTKLELK | 0.002 |  |  | binding result [4]: no binding
AK04 Reference Fab (Fab, V domains shown) VH: QVQLKESGPGLVAPSQSLSITCTVSGFSLTSYGVSWVRKPPGKGLEWLGVIWHDGSTSYHSTLISRLNISRDNSKSQVFLKLNSLQTDDTATYYCASDGYSGTFAYWGQGTLVTVSA VL: QIVVTQSPAIMSASLGERVTMTCTASSSVSSSYLHWYQQKPGSSPKLWIYSTSILASGVPARFSGSGSGTSYSLTVSSMEAEDAATYYCHQYHRSPYTFGGGSKLEIR |  |  |  | Kd [5]: 0.075 nM; koff [5]: 6.5e-05 s⁻¹; kon [5]: 860000 M⁻¹ s⁻¹
AK19 Fab (Fab, V domains shown) VH: QVQLQESGPGLVKPSETLSLTCTVSGFSLTSYGVSWIRQPPGKGLEWIGVIWHDGSTSYHSTLISRVTISRDTSKNQVSLKLSSVTAADTAVYYCASDGYSGTFAYWGQGTLVTVSS VL: QIVVTQSPATLSLSPGERATLSCTASSSVSSSYLHWYQQKPGQAPRLLIYSTSILASGIPARFSGSGSGTDFTLTISSLQPEDFAVYYCHQYHRSPYTFGQGTKLEIK |  |  |  | Kd [5]: 0.032 nM; koff [5]: 2.6e-05 s⁻¹; kon [5]: 830000 M⁻¹ s⁻¹
AK21 Fab (Fab, V domains shown) VH: QVQLQESGPGLVKPSETLSLTCTVSGFSLSSYGVSWIRQPPGKGLEWIGVIWHDGSTNYNPSLKSRVTISRDTSKNQVSLKLSSVTAADTAVYYCASDGYSGTFAYWGQGTLVTVSS VL: QIVVTQSPATLSLSPGERATLSCTASSSVSSSYLHWYQQKPGQAPRLLIYSTSILASGIPARFSGSGSGTDFTLTISSLQPEDFAVYYCHQYHRSPYTFGQGTKLEIK |  |  |  | Kd [5]: 0.04 nM; koff [5]: 3.7e-05 s⁻¹; kon [5]: 920000 M⁻¹ s⁻¹
AK20 Fab (Fab, V domains shown) VH: QVQLQESGPGLVKPSETLSLTCTVSGFSLTSYGVSWIRQPPGKGLEWIGVIWHDGSTSYHPSLKSRVTISRDTSKNQVSLKLSSVTAADTAVYYCASDGYSGTFAYWGQGTLVTVSS VL: QIVVTQSPATLSLSPGERATLSCTASSSVSSSYLHWYQQKPGQAPRLLIYSTSILASGIPARFSGSGSGTDFTLTISSLQPEDFAVYYCHQYHRSPYTFGQGTKLEIK |  |  |  | Kd [5]: 0.12 nM; koff [5]: 9.1e-05 s⁻¹; kon [5]: 750000 M⁻¹ s⁻¹
AK09 (antibody, V domains shown, also called anti-Siglec-6 mAb AK09) VH: QIQLVQSGPELKKPGETVKISCKASGYTLTTYGMSWVKQAPGKGLKWMGWINTYSGVPTYADEFKGRFAFSLETSASTAYLQINNLKNEDTATYFCARLGYYGYYFDYWGQGTTLTVSS VL: DVVLTQSPATLSVTPGDSVSLSCRASQSIRNNLHWYQQKSHESPRLLIKYIFQSISGIPSRFSGSGSGTEFTLSINSVETEDFGMYFCQQSDSWPHVTFGAGTKLELI | 0.11 | no binding | no binding | 
AK07 (antibody, V domains shown, also called anti-Siglec-6 mAb AK07) VH: EVQLQQSGPELVKPGASVKMSCKASGYTFTDYKMHWVKQSHGKSLEWIGNINPNNGGTSYNQKFKGKATLTVNKSSSTAYMELRSLTSEDSAVYYCARRYYGSSSSYFDYWGQGTTLTVSS VL: QIVLTQSPAIMSASPGEKVTMTCSVSSSVSYMHWYQQKSGTSPKRWIYDTSKLASGVPARFSGSGSGTSYSLTISSMEAEDAATYYCQQWSSNPPTFGAGTKLELK | 0.069 |  |  | 
